The record followed here is the supplement of paper PMC9170038.

In the series the test system is MS2 coat protein. Nature of the series: apparent KD of MS2 coat protein; designed switch direction (-1 OFF switch, 1 ON switch): -1; higher = weaker reporter binding. A digest of the protocol:
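Stalled E. coli RNA polymerase transcribed designed RNA switches on Illumina chips, which were then titrated with SNAP-549-labelled MS2 coat protein, doubling from 0.7 or 1.5 nM to 3 µM. Steps lasted from 0.8–1.5 h at the lowest concentration to 10–20 min at the highest. The apparent KD is each design's median over clusters of curve-fitted normalised fluorescence.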

Setting [1] is: Eterna round: R95, input ligand: FMN 200 uM.
[2] abbreviates: Eterna round: R95, input ligand: microRNA oligo, concentration not stated.
The mark [3] stands for this setting: Eterna round: R95, input ligand: none.
Where [4] appears, read: input ligand: microRNA oligo, concentration not stated.

Consider “AAGAAACAUGAGGAUCACCCAUGUGAGGAUAUAGAAAGAAAGAAAAGAAAAGAAAGAACUAGAAGGCACAAAGA [JR_Exclu1_Sub030] (puzzle: Exclusion 1)”, for which the “apparent KD of MS2 coat protein” value is 26.2 nM under setting [1], 26.4 nM under setting [2] and 30.8 nM under setting [3].

Turning to “UCCUUACAUGAGGAUCACCCAUGUCAGGAUAUCUCCACACUGCGCUUGCGCAGUGUAUAGAGAAGGGACGGGCU [JL ViennaUCT Aner mod 7] (puzzle: Exclusion 1)”, under setting [2], the “apparent KD of MS2 coat protein” value was 28.5 nM.

On to “CCACAUGCAGGAUAUGUAAAAUUUGACAUGAGGAUCACCCAUGUAGAUCCUGAAUUUCCUGCAGAAGGGCAUGUGG [Mat - Exclusion 5 - Eli Mod - D19] (Eterna round: R97, puzzle: Exclusion 5)”, for which the “apparent KD of MS2 coat protein” value is, setting by setting: (input ligand: FMN 200 uM) 605 nM; (input ligand: none) 149 nM.

For “CCGCAUAAGCAGGAUAUCGUAUCGGAGACGAUACGAGAAGGGUUAACAUGAGGAUCACCCAUGUUCCUUAACGG [Mat - Exclusion 6 - Eli Mod - D99] (puzzle: Exclusion 6)”, the “apparent KD of MS2 coat protein” value reads like this: under setting [1], 19.7 nM; under setting [2], 14.1 nM; under setting [3], 18.1 nM.

“UCGGCGCGAGGAUAUGCGGUUUGUGCUUUGGGCCCUGGCGUACAUGAGGAUCACCCAUGUAGAAGGCGCGUUGC [Apr-15 SS2-48] (puzzle: Exclusion 2)”: the “apparent KD of MS2 coat protein” value under setting [2] was found to be 17.1 nM.

“AGCCGUCUAGGAUAUACAUAAGAUCGGCAGUCUCCGUCGAGACAUGAGGAUCACCCAUGUAGAAGGAGGCGGGA [EX2 A.22] (Eterna round: R97, puzzle: Exclusion 2)”: the “apparent KD of MS2 coat protein” value runs as follows: (input ligand: FMN 200 uM) 208 nM; (input ligand: none) 47.2 nM.

As for “ACAAGCUCUUUGCAACUUAGUUUUGUUGCUUCGUAGGUAACAUGAGGAUCACCCAUGUAAGACUGAUGUCGUCUUAU [JR_SV3TOV2_Sub086] (Eterna round: R96, puzzle: Sensor v3, turn-off variant 2)”, the “apparent KD of MS2 coat protein” value worked out at 36.8 nM (input ligand: FMN 200 uM), 20.6 nM under setting [4] and 38.2 nM (input ligand: none).

In the case of “GCUUGGCGAGGAUAUACAUGAGGAUCACCCAUGUGAGAGAAAAAAGUGAGGAAGAAAAGUAGAAGGCGCUGAGG [Mat - Exclusion 3 - Mod of Salish D57] (puzzle: Exclusion 3)”, the “apparent KD of MS2 coat protein” value reads like this: under setting [1], 143 nM; under setting [2], 51.2 nM; under setting [3], 61.8 nM.

In the case of “GCUAGGAGUGUGAGGAUAUGCUGAUCCUUGGAUCAGCAGAAGGCACAUGAGGAUCACCCAUGUGAAGACCUAGC [Mat - Exclusion 4 - JL Mod - D2] (Eterna round: R97, puzzle: Brourd's mod of Exclusion 4)”, the “apparent KD of MS2 coat protein” value amounted to 169 nM (input ligand: FMN 200 uM) and 30 nM (input ligand: none).

Regarding “AGUAACAGAGGAUAUACUAUUUUAUGUGUUUGUUGUUUUGAACAUGAGGAUCACCCAUGUAGAAGGCUGAAUAA [JMF 96] (puzzle: Exclusion 2)”, the “apparent KD of MS2 coat protein” value under setting [2] was 24.1 nM.

Consider “CGUAAAAGGAAGGAUAUGCUAGACGAAAGUCUAGCAGAAGGUCCUACAUGAGGAUCACCCAUGUGUCCUAUACG [Mat - Exclusion 6 - Eli Mod - D12] (Eterna round: R97, puzzle: Exclusion 6)”, for which the “apparent KD of MS2 coat protein” value was 80.5 nM (input ligand: FMN 200 uM) and 49.8 nM (input ligand: none).

On to “GAUUAUGCAAGCUUUUGGGACAUGAGGAUCACCCAUGUUCGUCUUAUUGAUCUAGGUACGCUGACGUACCUAGAUCU [JL-sv1-2.32 Brourd mod] (puzzle: Sensor v3, turn-off variant 1)”, for which the “apparent KD of MS2 coat protein” value by setting is: under setting [1], 18.1 nM; under setting [2], 62.2 nM; under setting [3], 17.6 nM.

For “ACAAGCUUUACGAUCCUCAACAUGAGGAUCACCCAUGUGCUCGUAUUGUUUAGUACUAUCACGAAAGUGAUAGUACA [Sensor, turn off variant 1 v.6] (Eterna round: R97, puzzle: Sensor, turn-off variant 1)”, the “apparent KD of MS2 coat protein” value reads like this: (input ligand: FMN 200 uM) 1430 nM; (input ligand: none) 943 nM.

“AGAAAGUCAGGAUAUACAUGAGGAUCACCCAUGUAAAGAAAAGAAAGGGAAGGAAGAGGUAGAAGGGACAAGAA [JR_Exclu3_Sub031] (puzzle: Exclusion 3)”: the “apparent KD of MS2 coat protein” value runs as follows: under setting [1], 26.5 nM; under setting [2], 22.7 nM; under setting [3], 23 nM.

On to “GAUUGACAUGAGGAUCACCCAUGUGAGGAUAUCGGCCGGACCGUGUUAGCUUCCGUCGCGAGAAGGCGCAUAGG [Exclusion 1 V38] (puzzle: Exclusion 1)”, for which the “apparent KD of MS2 coat protein” value by setting is: under setting [1], 42.3 nM; under setting [2], 42.8 nM; under setting [3], 36.7 nM.

On to “AAAUAACAAGCAGGAUCCUACAUGAGGAUCACCCAUGUGCUCGUCUUAUAAAGUACUAUCACGAAAGUGAUAGUACA [Sensor 3, v1 - 14] (puzzle: Sensor v3, turn-off variant 1)”, for which the “apparent KD of MS2 coat protein” value stood at 434 nM under setting [1], 84.6 nM under setting [2] and 363 nM under setting [3].

As to “AAAUAACAAGCGAGAUCCUACAUGAGGAUCACCCAUGUGCUCGUCUUAAGAAGUACUAUCACGAAAGUGAUAGUACA [Mat - Sensor v3 - turn-off var 1 - Eli Mod - D68] (puzzle: Sensor v3, turn-off variant 1)”, the “apparent KD of MS2 coat protein” value was 17.6 nM under setting [1], 66 nM under setting [2] and 14.7 nM under setting [3].

With “GUAGAGUCAGGAUAUACGAGAUCGAAAGAUCGGCGGUCCAUACAUGAGGAUCACCCAUGUAGAAGGGACUCUAC [Omei mod 5 to Eli's favorate candidate (ch.parushev)] (Eterna round: R97, puzzle: Exclusion 2)”, the “apparent KD of MS2 coat protein” value runs as follows: (input ligand: FMN 200 uM) 115 nM; (input ligand: none) 18.3 nM.

Consider “GCAGGAUAAGUGAGGAUAUACCUCUGGAUACAGAGGUAGAAGGUACAUGAGGAUCACCCAUGUCUAUAACCUGC [Fiskers BMX 4 - 80] (puzzle: Brourd's mod of Exclusion 4)”, for which the “apparent KD of MS2 coat protein” value under setting [2] was 12.9 nM.

In the case of “AUGGGUCCUCACGGAGCUACAUGAGGAUCACCCAUGUGGAUUGAGGAUAUCGUAACCCGACGGGACGAGAAGGCAGUUUACUGU [Ex NG3 #98] (Eterna round: R96, puzzle: Exclusion NG 3)”, the “apparent KD of MS2 coat protein” value worked out at 63.1 nM (input ligand: FMN 200 uM), 23 nM under setting [4] and 29.4 nM (input ligand: none).

For “ACAUGUGUUGUAGGAUAUAGGAUACAUGAGGAUCACCCAUGUGGAUUCAUGUCUAAGGAAGCGUCCUAGAAGGACGACAACAUG [Ex NG2 #25] (Eterna round: R96, puzzle: Exclusion NG 2)”, the “apparent KD of MS2 coat protein” value worked out at 83 nM (input ligand: FMN 200 uM), 21.6 nM under setting [4] and 27.6 nM (input ligand: none).

For “CAAUGACAUGAGGAUCACCCAUGUGAGGAUAUGGAGCGAGACCGCGCGGUCGCGUACACCAGAAGGCGCAGGCG [1st #66] (Eterna round: R97, puzzle: Exclusion 1)”, the “apparent KD of MS2 coat protein” value runs as follows: (input ligand: FMN 200 uM) 89.3 nM; (input ligand: none) 37.9 nM.

As to “AUACCACGAGGAUAUCGUCUCUCCCACAUGAGGAUCACCCAUGUUAUCCAUGUUUCGUUUCGAGAAGGCGUGGGUU [JR_E5_Sub072] (puzzle: Exclusion 5)”, the “apparent KD of MS2 coat protein” value under setting [2] is 58.7 nM.

As to “CAGUACUGAGGAUAUACAUGAGGAUCACCCAUGUCUUAAAAGUAGGAUACUACUAUUAGUAGAAGGCAGUACUG [Fiskers Ex 3 828 mod 24] (puzzle: Exclusion 3)”, the “apparent KD of MS2 coat protein” value under setting [2] was 12.6 nM.

“UUGUAGUGAGGAUAUAUAUAGUGGUUUUAUUAAUUUUUAUUACUUGAGGAUCACCCAAGUAGAAGGCGCAAAGU [JR_Ex2_Sub071] (Eterna round: R97, puzzle: Exclusion 2)”: the “apparent KD of MS2 coat protein” value is 19.2 nM (input ligand: FMN 200 uM) and 18.3 nM (input ligand: none).

Turning to “ACAAGCUUUUUGCUCGUCUUGUAGAAACGUGAGAGCGAGACAUGAGGAUCACCCAUGUAAAGGCAGUAGGUGGAGAU [JR_SV3TOV2_Sub026] (puzzle: Sensor v3, turn-off variant 2)”, the “apparent KD of MS2 coat protein” value reads like this: under setting [1], 36.9 nM; under setting [2], 64.4 nM; under setting [3], 58.2 nM.

Take “AAAGAAACAUGAGGAUCACCCAUGUCUGAUCCAAUGUUUAGUCAGGAUAUGCGUCCGACUUCGGAGCAGAAGGGAUACAGGUAG [Anlaanma] (Eterna round: R96, puzzle: Exclusion NG 3)”: the “apparent KD of MS2 coat protein” value by setting is: (input ligand: FMN 200 uM) 125 nM; under setting [4], 357 nM; (input ligand: none) 356 nM.

As to “GGAGCGGAAGGAUAUGCUGCGGGAUUGAAUGGAAAGAAAAUACAUGAGGAUCACCCAUGUAGAAGGUCCGUGAA [Tiquxe] (puzzle: Exclusion 2)”, the “apparent KD of MS2 coat protein” value under setting [2] came out at 17 nM.

For “ACAGGUUAAGGAUAUACAUGAGGAUCACCCAUGUCGAGUAUCUUGUCAUGCCGCCCAUGUAGAAGGUAACAUGG [Geale] (puzzle: Exclusion 3)”, the “apparent KD of MS2 coat protein” value under setting [2] was 14.3 nM.

In the case of “GUGGGUUACAUGAGGAUCACCCAUGUAUAGUGGGAAGAGAUAUAGGAUAUAAUGUAAAAAUUAUAUUAGAAGGAUAGAGACUAG [AK ExNG3-1.3] (Eterna round: R96, puzzle: Exclusion NG 3)”, the “apparent KD of MS2 coat protein” value runs as follows: (input ligand: FMN 200 uM) 344 nM; under setting [4], 135 nM; (input ligand: none) 553 nM.

For the sequence “AAAAGAAUAAAAGGAUAUAGGAAAGGAAGUGUACUAGAAGGUUUGUUAACAUGAGGAUCACCCAUGUGCUCAGACACAGGGUGC [PowerStrip EXNG 1.3] (Eterna round: R96, puzzle: Exclusion NG 1)”, the “apparent KD of MS2 coat protein” value under setting [4] came out at 91.5 nM.
